The target of experiment [1] is T1, human calcitonin receptor (human, UniProt P30988 25-474).
T1 sequence (looked up): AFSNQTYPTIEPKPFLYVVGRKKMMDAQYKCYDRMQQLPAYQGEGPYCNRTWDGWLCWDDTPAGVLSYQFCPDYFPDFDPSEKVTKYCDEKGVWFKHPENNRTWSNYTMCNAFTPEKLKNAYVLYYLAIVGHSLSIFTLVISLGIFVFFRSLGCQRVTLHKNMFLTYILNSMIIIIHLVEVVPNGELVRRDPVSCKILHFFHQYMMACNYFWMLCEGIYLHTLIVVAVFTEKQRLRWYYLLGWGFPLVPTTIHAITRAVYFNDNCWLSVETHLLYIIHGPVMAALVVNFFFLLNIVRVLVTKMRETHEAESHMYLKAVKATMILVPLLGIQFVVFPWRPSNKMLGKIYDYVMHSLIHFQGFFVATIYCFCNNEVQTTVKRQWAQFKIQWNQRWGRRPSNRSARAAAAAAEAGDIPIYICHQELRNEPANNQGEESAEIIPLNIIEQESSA
The experiment in a line: cell-based or functional assay.

Experiment [2] deals with T2, human amylin receptor (amylin 3(a) receptor: human calcitonin receptor with RAMP-3) (human, UniProt P30988 25-474; O60896 24-148).
T2 sequence (looked up) 1: T1 sequence (looked up)
T2 sequence (looked up) 2: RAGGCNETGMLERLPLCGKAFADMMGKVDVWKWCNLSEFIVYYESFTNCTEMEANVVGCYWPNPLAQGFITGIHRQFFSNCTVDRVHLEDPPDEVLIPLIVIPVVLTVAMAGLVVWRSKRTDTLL
The experiment in a line: cell-based or functional assay.

Numbered stars: 1 amine (or outer) side, 2 acyl side, 3 side chain; on linkers, the order of the positions; unused ones are H or OH. Bridge positions count the residues as written; N and C are the ends. * marks the point of attachment. C20 diacid = O=C(O)CCCCCCCCCCCCCCCCCCC(=O)*; γGlu = O=C(O)[C@H](CCC(=O)[*:2])N[*:1]

B1: N^α1-[(4S)-4-carboxy-4-(19-carboxynonadecanoylamino)butanoyl]-[Glu14,Arg17,Pro21,Pro27,Pro37]-h-amylin (peptide)
peptide: {C20 diacid-γGlu}-KCNTATCATQRLAEFLRHSSPNFGAIPSSTNVGSNTP-NH2
modifications: disulfide 2-7
SMILES: CC[C@H](C)[C@H](NC(=O)[C@H](C)NC(=O)CNC(=O)[C@H](Cc1ccccc1)NC(=O)[C@H](CC(N)=O)NC(=O)[C@@H]1CCCN1C(=O)[C@H](CO)NC(=O)[C@H](CO)NC(=O)[C@H](Cc1c[nH]cn1)NC(=O)[C@H](CCCNC(=N)N)NC(=O)[C@H](CC(C)C)NC(=O)[C@H](Cc1ccccc1)NC(=O)[C@H](CCC(=O)O)NC(=O)[C@H](C)NC(=O)[C@H](CC(C)C)NC(=O)[C@H](CCCNC(=N)N)NC(=O)[C@H](CCC(N)=O)NC(=O)[C@@H](NC(=O)[C@H](C)NC(=O)[C@@H]1CSSC[C@H](NC(=O)[C@H](CCCCN)NC(=O)CC[C@H](NC(=O)CCCCCCCCCCCCCCCCCCC(=O)O)C(=O)O)C(=O)N[C@@H](CC(N)=O)C(=O)N[C@@H]([C@@H](C)O)C(=O)N[C@@H](C)C(=O)N[C@@H]([C@@H](C)O)C(=O)N1)[C@@H](C)O)C(=O)N1CCC[C@H]1C(=O)N[C@@H](CO)C(=O)N[C@@H](CO)C(=O)N[C@H](C(=O)N[C@@H](CC(N)=O)C(=O)N[C@H](C(=O)NCC(=O)N[C@@H](CO)C(=O)N[C@@H](CC(N)=O)C(=O)N[C@H](C(=O)N1CCC[C@H]1C(N)=O)[C@@H](C)O)C(C)C)[C@@H](C)O
notes: also called compound 8
In the case of B1, in experiment [1], the “Ratio hCT/hAmylin funct.” value worked out at 1.1 and the “hCTR funct. EC50” value was determined as 87 pM. In addition, in experiment [2], the “hAmylin-R funct. EC50” value is 82 pM.

B2: N^α1-[(4S)-4-carboxy-4-(19-carboxynonadecanoylamino)butanoyl]-[His14,Arg17,Pro21,Pro27,Glu35]-h-amylin (peptide)
peptide: {C20 diacid-γGlu}-KCNTATCATQRLAHFLRHSSPNFGAIPSSTNVGSETY-NH2
modifications: disulfide 2-7
SMILES: CC[C@H](C)[C@H](NC(=O)[C@H](C)NC(=O)CNC(=O)[C@H](Cc1ccccc1)NC(=O)[C@H](CC(N)=O)NC(=O)[C@@H]1CCCN1C(=O)[C@H](CO)NC(=O)[C@H](CO)NC(=O)[C@H](Cc1c[nH]cn1)NC(=O)[C@H](CCCNC(=N)N)NC(=O)[C@H](CC(C)C)NC(=O)[C@H](Cc1ccccc1)NC(=O)[C@H](Cc1c[nH]cn1)NC(=O)[C@H](C)NC(=O)[C@H](CC(C)C)NC(=O)[C@H](CCCNC(=N)N)NC(=O)[C@H](CCC(N)=O)NC(=O)[C@@H](NC(=O)[C@H](C)NC(=O)[C@@H]1CSSC[C@H](NC(=O)[C@H](CCCCN)NC(=O)CC[C@H](NC(=O)CCCCCCCCCCCCCCCCCCC(=O)O)C(=O)O)C(=O)N[C@@H](CC(N)=O)C(=O)N[C@@H]([C@@H](C)O)C(=O)N[C@@H](C)C(=O)N[C@@H]([C@@H](C)O)C(=O)N1)[C@@H](C)O)C(=O)N1CCC[C@H]1C(=O)N[C@@H](CO)C(=O)N[C@@H](CO)C(=O)N[C@H](C(=O)N[C@@H](CC(N)=O)C(=O)N[C@H](C(=O)NCC(=O)N[C@@H](CO)C(=O)N[C@@H](CCC(=O)O)C(=O)N[C@H](C(=O)N[C@@H](Cc1ccc(O)cc1)C(N)=O)[C@@H](C)O)C(C)C)[C@@H](C)O
notes: also called compound 30
Turning to B2, in experiment [1], the “Ratio hCT/hAmylin funct.” value was 12.6 and the “hCTR funct. EC50” value amounted to 1680 pM. Moreover, the “hAmylin-R funct. EC50” value in experiment [2] is 134 pM.

For the origin of these results see patent publication US20140087995A1 (published 2014).
